These results are taken from patent US20250186597A1, “TARGETED IMMUNE ACTIVATION WITH IL-18 IMMUNOCYTOKINES” (BRIGHT PEAK THERAPEUTICS AG, priority 2023, published 2025).

Numbering of substitutions follows the chain as printed. Names may count otherwise.

In one assay the target is T1, human IL-18BP (Homo sapiens, UniProt O95998).
T1 construct: His
T1 sequence (O95998 31-194): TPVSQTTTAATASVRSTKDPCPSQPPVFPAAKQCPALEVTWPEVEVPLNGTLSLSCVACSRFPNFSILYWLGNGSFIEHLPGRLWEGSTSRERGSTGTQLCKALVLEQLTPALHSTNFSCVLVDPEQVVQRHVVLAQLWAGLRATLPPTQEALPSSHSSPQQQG
Kind of assay: IL-18BP binding alphaLISA assay (Example 4, used in Example 22B). Conditions: IL-18BP AlphaLISA. On the procedure: A human IL-18BP AlphaLISA Assay Kit is used to determine the binding affinity of each immunocytokine and IL-18 variant for IL-18BP, which detected the presence of free form IL-18BP.
Sixteen three-fold serial dilutions of IL-18 analytes are prepared in aMEM medium supplemented with 20% FCS, Glutamax, and 25 µM β-mercaptoethanol in the presence of 5 ng/mL of His-tagged human IL-18BP. Final IL-18 analytes concentration range from 2778 nM to […].
After 1 hr incubation at room temperature, free IL-18BP levels are measured using a […]. In a 384 well OPTIplate, 5 μL of 5× Anti-IL-18BP acceptor beads are added to 7.5 μL of an IL-18/IL-18BP mix. After 30 min incubation at room temperature with shaking, 5 μL of biotinylated Anti-IL-18BP antibodies are added to each well. The plate is incubated further for 1 hr at room temperature. Under subdued light, 12.5 μL of 2× streptavidin (SA) donor beads are pipetted into each well, and the wells are incubated with shaking for an additional 30 min at room temperature. The AlphaLisa signal is then measured on an Enspire plate reader with 680 and 615 nm as excitation and emission wavelengths, respectively. The dissociation constant (KD) is calculated based on a variable slope, four parameter analysis using GraphPad PRISM software.
An IL-18 binding protein AiphaLISA experiment substantially as described in Example 4 was performed on IL-18 polypeptide which can be incorporated into immunocytokine compositions as provided herein to assess ability to bind to IL-181BP. It is expected that the IL-18 polypeptides provided below would behave analogously to C086 (SEQ ID NO: 30) when incorporated into an immunocytokine composition as those otherwise provided herein.
For orientation: Bead proximity is the source of the signal in Alpha formats.

The subject of a further assay is NK-92 cells. Kind of assay: IFNγ induction cellular assay in NK-92 cells (Example 4, used in Example 22C). Conditions: IFNg stimulation in NK92 cells. Type of assay: cell-based, human. On the procedure: The ability of immunocytokines and IL-18 polypeptides provided herein are assessed for ability to induce IFN[…] in a cellular assay according to the protocol below.
The NK cell line NK-92 derived from a patient with lymphoma (ATCC® CRL-2407™) is cultured in aMEM medium supplemented with 20% FCS, Glutamax, 25 µM B-mercaptoethanol, and 100 IU/mL of recombinant human IL-2.
On the day of experiment, cells are harvested and washed with aMEM medium without IL-2 and containing 1 ng/mL of recombinant human IL-12. After counting, cells are seeded at 100,000 cells/well in a 384 well titer plate and incubated at 37° C./5% CO2. Sixteen 4-fold serial dilutions of IL-18 analytes are prepared in aMEM medium, and 1 ng/mL of IL-12 were added to the NK-92 cells. Final IL-18 analyte concentrations range from 56 nM to 5×10^−5 pM.
After incubating the cells for 16-20 hr at 37° C./5% CO2, 5 μL of supernatant is carefully transferred to a 384 microwell OptiPlate. IFNγ levels are measured using a human IFNγ AlphaLISA Assay Kit. Briefly, 10 μL of 2.5× AlphaLISA Anti-IFNγ acceptor beads and biotinylated antibody anti-IFNγ mix are added to the 5 μL of NK-92 supernatants. The mixtures are incubated for 1 hr at room temperature with shaking. Under subdued light, 2.5 μL of 2× streptavidin (SA) donor beads are pipetted into each well, and the wells are incubated for 30 min at room temperature with shaking. AlphaLISA signals are then measured on an EnSpire™ plate reader using 680 nm and 615 nm as excitation and emission wavelengths, respectively. Half maximal effective concentrations (EC50) are calculated based on a variable slope and four parameter analysis using GraphPad PRISM software.
The experiments described in Example 4 for determination of IFNg stimulation in NK92 cells (and inhibition by IL-18 BP) were performed substantially as described on IL-18 polypeptides in order to assess their activities and their suitability for incorporation into immunocytokine compositions. It is expected that the IL-18 polypeptides provided below would behave analagously to C086 (SEQ ID NO: 30) when incorporated into an immunocytokine composition as those otherwise provided herein.

B1: SEQ ID NO: 71: IL-18 polypeptide: N-terminal G, E6K, V11I, C38A, K53A, T63A, C76A, C127A (protein)
chain: GYFGKLKSKLSIIRNLNDQVLFIDQGNRPLFEDMTDSDARDNAPRTIFIISMYADSQPRGMAVAISVKCEKISTLSAENKIISFKEMNPPDNIKDTKSDIIFFQRSVPGHDNKMQFESSSYEGYFLAAEKERDLFKLILKKEDELGDRSIMFTVQNED
modifications: N-terminal G
notes: IL-18 polypeptide: N-terminal G, E6K, V11I, C38A, K53A, T63A, C76A, C127A
B1: in the assay with human IL-18BP, the Kd (in general, a measure of binding affinity in units of concentration) was more than 2800 nM.

B2: SEQ ID NO: 70: IL-18 polypeptide: N-terminal G, E6K, V11I, C38A, M51G, K53A, T63A, C76A, C127A (protein)
chain: B1 chain with M52G
modifications: N-terminal G
notes: IL-18 polypeptide: N-terminal G, E6K, V11I, C38A, M51G, K53A, T63A, C76A, C127A
B2: the Kd with human IL-18BP is more than 2800 nM.

B3: 44 (protein)
chain: YAGKLKSKLSVIRNLNDQVLFIDQGNRPLFEDMTDSDCRDNAPRTIFIISMYADAQPRGMAVTISVKCEKISTLSCENKIISFKEMNPPDNIKDTKSDIIFFQRSVPGHDNKMQFESSSYEGYFLACEKERDLFKLILKKEDELGDRSIMFTVQNED
B3: in the assay with human IL-18BP, the Kd is more than 1000 nM. The EC50 (in general, the concentration needed to bring the measured effect to its halfway point) in the assay with NK-92 cells is more than 1000 nM.

B4: C178: IL-18 polypeptide: E6K, V11I, C38A, K53A, T63A, C76A, Q103R, C127A (protein)
chain: B3 chain with A2F, V11I, C38A, A55S, T63A, C76A, Q103R, C127A
Molecule B4 gave a Kd with human IL-18BP of more than 2800 nM.

B5: C179: IL-18 polypeptide: E6K, K8E, V11I, C38A, K53A, T63A, C76A, Q103R, C127A (protein)
chain: B3 chain with A2F, K8E, V11I, C38A, A55S, T63A, C76A, Q103R, C127A
As for B5, the Kd in the assay with human IL-18BP is more than 2800 nM.

B6: C181: IL-18 polypeptide: E6K, V11I, C38A, K53A, T63A, C76A, C127A, V153E (protein)
chain: B3 chain with A2F, V11I, C38A, A55S, T63A, C76A, C127A, V153E
B6 registered a Kd with human IL-18BP of more than 2800 nM.

B7: C182: IL-18 polypeptide: E6K, V11I, C38A, K53A, T63A, C76A, C127A, V153Y (protein)
chain: B3 chain with A2F, V11I, C38A, A55S, T63A, C76A, C127A, V153Y
Molecule B7 registered a Kd in the assay with human IL-18BP of more than 2800 nM.

B8: C184: IL-18 polypeptide: E6R, V11I, C38A, K53A, T63A, C76A, C127A (protein)
chain: B3 chain with A2F, K6R, V11I, C38A, A55S, T63A, C76A, C127A
The molecule B8 displayed an equilibrium dissociation constant (Kd) with human IL-18BP of 5.46 nM.

B9: 56 (protein)
chain: B3 chain with A2F, C38S, A55S, C76S, C127S
In turn, B9 yielded a Kd with human IL-18BP of 436 nM.

B10: C142: IL-18 polypeptide: Y1M, E6K, V11I, C38A, K53A, T63A, C76A, C127A (protein)
chain: B3 chain with Y1M, A2F, V11I, C38A, A55S, T63A, C76A, C127A
B10 yielded a Kd with human IL-18BP of 2.25 nM. This Kd is about 190-fold lower than that of the molecule before.

B11: C176: IL-18 polypeptide: E6K, V11I, C38A, I49M, K53A, T63A, C76A, C127A (protein)
chain: B3 chain with A2F, V11I, C38A, I49M, A55S, T63A, C76A, C127A
As to B11, the Kd with human IL-18BP came to 25.8 nM.

B12: SEQ ID NO: 69: IL-18 polypeptide: E6K, V11I, C38A, M51G, K53A, T63A, C76A, C127A (protein)
chain: B3 chain with A2F, V11I, C38A, M51G, A55S, T63A, C76A, C127A
In the assay with human IL-18BP, B12 came in with a Kd of more than 2800 nM.

B13: C174: IL-18 polypeptide: K8L, E6K, V11I, C38A, K53A, T63A, C76A, C127A (protein)
chain: B3 chain with A2F, K8L, V11I, C38A, A55S, T63A, C76A, C127A
B13 came in with a Kd with human IL-18BP of 0.14 nM.

B14: 49 (protein)
chain: B3 chain with A2F, C38S, C68S, K70C, C76S, C127S
In the assay with human IL-18BP, B14 showed a Kd of more than 1000 nM. This molecule also had an EC50 in the assay on NK-92 cells of 58.5 nM.

B15: 45 (protein)
chain: B3 chain with A2F, D54A
B15 had a Kd in the assay with human IL-18BP of more than 1000 nM. This molecule also yielded an EC50 in the assay on NK-92 cells of 30 nM.

B16: C177: IL-18 polypeptide: E6K, V11I, C38A, I49R, K53A, T63A, C76A, C127A (protein)
chain: B3 chain with A2F, V11I, C38A, I49R, A55S, T63A, C76A, C127A
As to B16, in the assay with human IL-18BP, the Kd is more than 2800 nM.

B17: SEQ ID NO: 72: IL-18 polypeptide: N-terminal 4xG, E6K, V11I, C38A, K53A, T63A, C76A, C127A (protein)
chain: GGGGYFGKLKSKLSIIRNLNDQVLFIDQGNRPLFEDMTDSDARDNAPRTIFIISMYADSQPRGMAVAISVKCEKISTLSAENKIISFKEMNPPDNIKDTKSDIIFFQRSVPGHDNKMQFESSSYEGYFLAAEKERDLFKLILKKEDELGDRSIMFTVQNED
modifications: N-terminal 4xG
notes: IL-18 polypeptide: N-terminal 4xG, E6K, V11I, C38A, K53A, T63A, C76A, C127A
For B17, the Kd with human IL-18BP is more than 2800 nM.
